Several values for one entry are separate records, joined by “and”; a condition that tells them apart may be missing. Equal entries are not always repeated.
Legend:
Type in all cases: binding
[1] = Probe fluorescence ratio response to palmitic acid relative to ADIFAB2; details: response relative to ADIFAB2
From the text: (§1) In an alternate preferred embodiment, the protein is rI-FABP that has Ala substituted for Leu at position 72 (rI-FABP-L72A) with the resulting probe named ADIFAB2. […] Other probes useful in embodiments of the invention are shown in Tables 1-6 and are also described in U.S. application Ser. No. 11/085,792, filed Mar. 21, 2005 which is incorporated herein by reference. The indicated substitutions are with reference to the ADIFAB protein of SEQ ID NO: 2.
(§2) ADIFAB2 also has an altered spectral response, making it especially useful for measurements of FFAu in blood samples (Apple et al, Clinical Proteomics, (2004) 1:41-44, U.S. patent application Ser. No. 10/670,958). The wavelengths at the maximum intensities emitted by these fluorescently-labeled I-FABP's in the absence of FFA is about 420 to 480 nm. The emission wavelengths at the maximum intensities emitted by these fluorescently-labeled I-FABP's with FFA bound are between about 495 to 580 nm. Experiments typically involve measuring the fluorescence response within both emission maxima or at wavelengths for which the effect of interfering molecules such as hemoglobin can be eliminated as described in U.S. application Ser. No. 10/670958 and PCT/US2004/030521 and the calculation of the ratio ‘R’ of the two fluorescence intensities. The baseline value for this ratio, measured in the absence of analyte, is designated R0.
(§3) The intensity ratio (“R” value) is determined as follows. The ratio is calculated using the following formula: R=Fλ1/Fλ2 wherein, Fλ1 is the measured fluorescence intensities (intensity of sample with probe present minus intensity of sample without probe present) at wavelength 1 and Fλ2 is the measured fluorescence intensities (intensity of sample with probe present minus intensity of sample without probe present) at wavelength 2. Then, for a given probe, ΔR, the difference in R value between the measurement in the presence of the test compound (agent) and in the absence of the test compound (agent), is calculated as follows: ΔR=R+agent−R0 In some embodiments, the ΔR value may then be compared to some reference, for example, an agent with a known affinity for a given probe, by ΔR/ΔRreference. Measurements of fluorescence intensities are obtained using standard techniques.

[2] = Probe fluorescence ratio response to linoleic acid relative to ADIFAB2; details: response relative to ADIFAB2
From the text: as §1, §2, §3

[3] = Probe fluorescence ratio response to linolenic acid relative to ADIFAB2; details: response relative to ADIFAB2
From the text: as §1, §2, §3

[4] = Probe fluorescence ratio response to oleic acid relative to ADIFAB2; details: response relative to ADIFAB2
From the text: as §1, §2, §3

[5] = Probe fluorescence ratio response to arachidonic acid relative to ADIFAB2; details: arachidonic acid; response relative to ADIFAB2
From the text: as §1, §2, §3

Row | Molecule | DR/DR PA [1] | DR/DR LA [2] | DR/DR LNA [3] | DR/DR OA [4] | DR/DR AA [5]
1 | 119F, 72A (protein, listed as Rattus norvegicus, PEPTIDE (1)...(131) wild-type rat intestinal fatty acid binding protein) AFDGTWKVDRNENYEKFMEKMGINVVKRKLGAHDNLKLTITQEGNKFTVKESSNFRNIDVVFELGVDFAYSAADGTELTGTWTMEGNKLVGKFKRVDNGKELIAVREISGNELIQTYTFEGVEAKRIFKKE | 0.69 | 0.90 | 0.93 | 0.94 | 0.93
2 | 119I, 72A (protein, listed as Rattus norvegicus, PEPTIDE (1)...(131) wild-type rat intestinal fatty acid binding protein) AFDGTWKVDRNENYEKFMEKMGINVVKRKLGAHDNLKLTITQEGNKFTVKESSNFRNIDVVFELGVDFAYSAADGTELTGTWTMEGNKLVGKFKRVDNGKELIAVREISGNELIQTYTIEGVEAKRIFKKE | 0.69 and 0.720 | 1.10 and 0.960 | 1.06 and 0.940 | 1.08 and 1.050 | 1.01 and 0.920
3 | 119Q, 72A (protein, listed as Rattus norvegicus, PEPTIDE (1)...(131) wild-type rat intestinal fatty acid binding protein) AFDGTWKVDRNENYEKFMEKMGINVVKRKLGAHDNLKLTITQEGNKFTVKESSNFRNIDVVFELGVDFAYSAADGTELTGTWTMEGNKLVGKFKRVDNGKELIAVREISGNELIQTYTQEGVEAKRIFKKE | 0.35 | 0.58 | 0.62 | 0.60 | 0.60
4 | 119T, 72A (protein, listed as Rattus norvegicus, PEPTIDE (1)...(131) wild-type rat intestinal fatty acid binding protein) AFDGTWKVDRNENYEKFMEKMGINVVKRKLGAHDNLKLTITQEGNKFTVKESSNFRNIDVVFELGVDFAYSAADGTELTGTWTMEGNKLVGKFKRVDNGKELIAVREISGNELIQTYTTEGVEAKRIFKKE | 0.79 | 1.22 | 1.21 | 1.26 | 1.22
5 | 119S, 72A (protein, listed as Rattus norvegicus, PEPTIDE (1)...(131) wild-type rat intestinal fatty acid binding protein) AFDGTWKVDRNENYEKFMEKMGINVVKRKLGAHDNLKLTITQEGNKFTVKESSNFRNIDVVFELGVDFAYSAADGTELTGTWTMEGNKLVGKFKRVDNGKELIAVREISGNELIQTYTSEGVEAKRIFKKE | 0.37 and 0.373 | 0.46 and 0.457 | 0.73 and 0.734 | 0.71 and 0.714 | 0.78 and 0.781
6 | 11G, 72A (protein, listed as Rattus norvegicus, PEPTIDE (1)...(131) wild-type rat intestinal fatty acid binding protein) AFDGTWKVDRGENYEKFMEKMGINVVKRKLGAHDNLKLTITQEGNKFTVKESSNFRNIDVVFELGVDFAYSAADGTELTGTWTMEGNKLVGKFKRVDNGKELIAVREISGNELIQTYTYEGVEAKRIFKKE | 0.61 | 0.70 | 0.67 | 0.62 | 0.63
7 | 102F, 72A (protein, listed as Rattus norvegicus, PEPTIDE (1)...(131) wild-type rat intestinal fatty acid binding protein) AFDGTWKVDRNENYEKFMEKMGINVVKRKLGAHDNLKLTITQEGNKFTVKESSNFRNIDVVFELGVDFAYSAADGTELTGTWTMEGNKLVGKFKRVDNGKEFIAVREISGNELIQTYTYEGVEAKRIFKKE | 0.43 and 0.369 | 0.73 and 0.657 | 0.53 and 0.588 | 0.64 and 0.554 | 0.95 and 0.858
8 | 102E, 72A (protein, listed as Rattus norvegicus, PEPTIDE (1)...(131) wild-type rat intestinal fatty acid binding protein) AFDGTWKVDRNENYEKFMEKMGINVVKRKLGAHDNLKLTITQEGNKFTVKESSNFRNIDVVFELGVDFAYSAADGTELTGTWTMEGNKLVGKFKRVDNGKEEIAVREISGNELIQTYTYEGVEAKRIFKKE | 0.30 | 0.65 | 0.89 | 0.60 | 0.56
9 | 11C, 72A (protein, listed as Rattus norvegicus, PEPTIDE (1)...(131) wild-type rat intestinal fatty acid binding protein) AFDGTWKVDRCENYEKFMEKMGINVVKRKLGAHDNLKLTITQEGNKFTVKESSNFRNIDVVFELGVDFAYSAADGTELTGTWTMEGNKLVGKFKRVDNGKELIAVREISGNELIQTYTYEGVEAKRIFKKE | 0.80 | 0.70 | 0.64 | 0.70 | 0.52
10 | 119G, 72A (protein, listed as Rattus norvegicus, PEPTIDE (1)...(131) wild-type rat intestinal fatty acid binding protein) AFDGTWKVDRNENYEKFMEKMGINVVKRKLGAHDNLKLTITQEGNKFTVKESSNFRNIDVVFELGVDFAYSAADGTELTGTWTMEGNKLVGKFKRVDNGKELIAVREISGNELIQTYTGEGVEAKRIFKKE | 0.46 | 0.77 | 0.81 | 0.78 | 0.83
11 | 119H, 72A (protein, listed as Rattus norvegicus, PEPTIDE (1)...(131) wild-type rat intestinal fatty acid binding protein) AFDGTWKVDRNENYEKFMEKMGINVVKRKLGAHDNLKLTITQEGNKFTVKESSNFRNIDVVFELGVDFAYSAADGTELTGTWTMEGNKLVGKFKRVDNGKELIAVREISGNELIQTYTHEGVEAKRIFKKE | 0.32 | 0.63 | 0.67 | 0.59 | 0.71
12 | 119V, 72A (protein, listed as Rattus norvegicus, PEPTIDE (1)...(131) wild-type rat intestinal fatty acid binding protein) AFDGTWKVDRNENYEKFMEKMGINVVKRKLGAHDNLKLTITQEGNKFTVKESSNFRNIDVVFELGVDFAYSAADGTELTGTWTMEGNKLVGKFKRVDNGKELIAVREISGNELIQTYTVEGVEAKRIFKKE | 0.57 and 0.480 | 1.01 and 0.720 | 1.00 and 0.710 | 1.02 and 0.780 | 0.99 and 0.750
13 | 119K, 72A (protein, listed as Rattus norvegicus, PEPTIDE (1)...(131) wild-type rat intestinal fatty acid binding protein) AFDGTWKVDRNENYEKFMEKMGINVVKRKLGAHDNLKLTITQEGNKFTVKESSNFRNIDVVFELGVDFAYSAADGTELTGTWTMEGNKLVGKFKRVDNGKELIAVREISGNELIQTYTKEGVEAKRIFKKE | 0.58 | 0.85 | 0.78 | 0.87 | 0.78
